The test addresses VEGF (VEGF 1-165 aa, R&D Systems 293-VE-010) (UniProt P15692 27-191). In words: Direct bind ELISA, VEGF coated on plate.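 Note: ELISA screening of antibodies for binding to the plate-coated target antigen.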

Sequence of VEGF (VEGF 1-165 aa, R&D Systems 293-VE-010) (P15692 other isoform, or with tags, fused parts or gaps limits assumed): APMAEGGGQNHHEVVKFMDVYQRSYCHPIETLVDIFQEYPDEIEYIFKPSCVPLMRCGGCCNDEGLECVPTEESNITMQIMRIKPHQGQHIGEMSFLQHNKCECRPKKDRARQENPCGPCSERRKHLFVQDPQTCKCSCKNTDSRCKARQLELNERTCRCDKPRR
Description: Enzyme Linked Immunosorbent Assays to screen for antibodies that bind a desired target antigen were performed as follows. […] Plates were washed four times with PBS containing 0.02% Tween 20. Plates were blocked by the addition of 300 μL/well blocking solution (non-fat dry milk powder, various retail suppliers, diluted to 2% in PBS) for ½ hour at room temperature. Plates were washed four times after blocking with PBS containing 0.02% Tween 20.
Plates were washed 4 times with PBS containing 0.02% Tween 20.

B1: DVD466 (bispecific antibody, IgG1)
VH: EVQLVESGGGLVQPGGSLRLSCAASGFTISDYWIHWVRQAPGKGLEWVAGITPAGGYTYYADSVKGRFTISADTSKNTAYLQMNSLRAEDTAVYYCARFVFFLPYAMDYWGQGTLVTVSSASTKGPEVQLVESGGGLVQPGGSLRLSCAASGFTFTDNWISWVRQAPGKGLEWVGYISPNSGFTYYADSVKGRFTISADTSKNTAYLQMNSLRAEDTAVYYCARDNFGGYFDYWGQGTLVTVSS
VL: DIQMTQSPSSLSASVGDRVTITCRASQDVSTAVAWYQQKPGKAPKLLIYSASFLYSGVPSRFSGSGSGTDFTLTISSLQPEDFATYYCQQSYTTPPTFGQGTKVEIKRTVAAPDIQMTQSPSSLSASVGDRVTITCRASQDVSTAVAWYQQKPGKAPKLLIYSASFLYSGVPSRFSGSGSGTDFTLTISSLQPEDFATTYYCQQSYTGTVTFGQGTKVEIKR
notes: HC linker short, LC linker short; also called DVD466H; DVD466L
For orientation: EC50 means the concentration giving half of the maximal effect. The low end stands for greater potency, the high end for weaker potency. In turn, B1 came in with an EC50 of 2.61 nM. This lies in the single-digit nanomolar range.

B2: DVD478 (bispecific antibody, IgG1)
VH: EVQLVESGGGLVQPGGSLRLSCAASGFTISDYWIHWVRQAPGKGLEWVAGITPAGGYTYYADSVKGRFTISADTSKNTAYLQMNSLRAEDTAVYYCARFVFFLPYAMDYWGQGTLVTVSSASTKGPSVFPLAPEVQLVESGGGLVQPGGSLRLSCAASGFTFTDNWISWVRQAPGKGLEWVGYISPNSGFTYYADSVKGRFTISADTSKNTAYLQMNSLRAEDTAVYYCARDNFGGYFDYWGQGTLVTVSS
VL: B1 VL
notes: HC linker long, LC linker short; also called DVD478H; DVD478L
Molecule B2 displayed an EC50 of 2.72 nM. The EC50 values of the last two molecules are within 1.5-fold of each other.

B3: DVD484 (bispecific antibody, IgG1)
VH: B1 VH
VL: DIQMTQSPSSLSASVGDRVTITCRASQDVSTAVAWYQQKPGKAPKLLIYSASFLYSGVPSRFSGSGSGTDFTLTISSLQPEDFATYYCQQSYTTPPTFGQGTKVEIKRTVAAPSVFIFPPDIQMTQSPSSLSASVGDRVTITCRASQDVSTAVAWYQQKPGKAPKLLIYSASFLYSGVPSRFSGSGSGTDFTLTISSLQPEDFATTYYCQQSYTGTVTFGQGTKVEIKR
notes: HC linker short, LC linker long; also called DVD484H; DVD484L
On to B3, for which the EC50 came to 4.84 nM.

B4: DVD471 (bispecific antibody, IgG1)
VH: EVQLVESGGGLVQPGGSLRLSCAASGFTFTDNWISWVRQAPGKGLEWVGYISPNSGFTYYADSVKGRFTISADTSKNTAYLQMNSLRAEDTAVYYCARDNFGGYFDYWGQGTLVTVSSASTKGPSVFPLAPEVQLVESGGGLVQPGGSLRLSCAASGFTISDYWIHWVRQAPGKGLEWVAGITPAGGYTYYADSVKGRFTISADTSKNTAYLQMNSLRAEDTAVYYCARFVFFLPYAMDYWGQGTLVTVSS
VL: DIQMTQSPSSLSASVGDRVTITCRASQDVSTAVAWYQQKPGKAPKLLIYSASFLYSGVPSRFSGSGSGTDFTLTISSLQPEDFATTYYCQQSYTGTVTFGQGTKVEIKRTVAAPSVFIFPPDIQMTQSPSSLSASVGDRVTITCRASQDVSTAVAWYQQKPGKAPKLLIYSASFLYSGVPSRFSGSGSGTDFTLTISSLQPEDFATYYCQQSYTTPPTFGQGTKVEIKR
notes: HC linker long, LC linker long; also called DVD471H; DVD471L
B4 yielded a half-maximal effective concentration (EC50) of 30.1 nM. Against the preceding molecule, the EC50 is about 6.2-fold higher.

B5: DVD480 (bispecific antibody, IgG1)
VH: EVQLVESGGGLVQPGGSLRLSCAASGFTINASWIHWVRQAPGKGLEWVGAIYPYSGYTNYADSVKGRFTISADTSKNTAYLQMNSLRAEDTAVYYCARWGHSTSPWAMDYWGQGTLVTVSSASTKGPSVFPLAPEVQLVESGGGLVQPGGSLRLSCAASGFTFTDNWISWVRQAPGKGLEWVGYISPNSGFTYYADSVKGRFTISADTSKNTAYLQMNSLRAEDTAVYYCARDNFGGYFDYWGQGTLVTVSS
VL: DIQMTQSPSSLSASVGDRVTITCRASQVIRRSLAWYQQKPGKAPKLLIYAASNLASGVPSRFSGSGSGTDFTLTISSLQPEDFATYYCQQSNTSPLTFGQGTKVEIKRTVAAPDIQMTQSPSSLSASVGDRVTITCRASQDVSTAVAWYQQKPGKAPKLLIYSASFLYSGVPSRFSGSGSGTDFTLTISSLQPEDFATTYYCQQSYTGTVTFGQGTKVEIKR
notes: DVD-Ig, outer AB071 / inner AB015; HC linker long, LC linker short; also called DVD480H; DVD480L
For the molecule B5, the EC50 worked out at 23 nM.

B6: DVD472 (bispecific antibody, IgG1)
VH: B2 VH
VL: B3 VL
notes: HC linker long, LC linker long; also called DVD472H; DVD472L
Turning to B6, the half-maximal effective concentration (EC50) is 9.22 nM.

B7: DVD479 (bispecific antibody, IgG1)
VH: EVQLVESGGGLVQPGGSLRLSCAASGFTFTDNWISWVRQAPGKGLEWVGYISPNSGFTYYADSVKGRFTISADTSKNTAYLQMNSLRAEDTAVYYCARDNFGGYFDYWGQGTLVTVSSASTKGPSVFPLAPEVQLVESGGGLVQPGGSLRLSCAASGFTINASWIHWVRQAPGKGLEWVGAIYPYSGYTNYADSVKGRFTISADTSKNTAYLQMNSLRAEDTAVYYCARWGHSTSPWAMDYWGQGTLVTVSS
VL: DIQMTQSPSSLSASVGDRVTITCRASQDVSTAVAWYQQKPGKAPKLLIYSASFLYSGVPSRFSGSGSGTDFTLTISSLQPEDFATTYYCQQSYTGTVTFGQGTKVEIKRTVAAPDIQMTQSPSSLSASVGDRVTITCRASQVIRRSLAWYQQKPGKAPKLLIYAASNLASGVPSRFSGSGSGTDFTLTISSLQPEDFATYYCQQSNTSPLTFGQGTKVEIKR
notes: DVD-Ig, outer AB015 / inner AB071; HC linker long, LC linker short; also called DVD479H; DVD479L
In turn, B7 had a half-maximal effective concentration (EC50) of 456 nM.

B8: DVD465 (bispecific antibody, IgG1)
VH: EVQLVESGGGLVQPGGSLRLSCAASGFTFTDNWISWVRQAPGKGLEWVGYISPNSGFTYYADSVKGRFTISADTSKNTAYLQMNSLRAEDTAVYYCARDNFGGYFDYWGQGTLVTVSSASTKGPEVQLVESGGGLVQPGGSLRLSCAASGFTISDYWIHWVRQAPGKGLEWVAGITPAGGYTYYADSVKGRFTISADTSKNTAYLQMNSLRAEDTAVYYCARFVFFLPYAMDYWGQGTLVTVSS
VL: DIQMTQSPSSLSASVGDRVTITCRASQDVSTAVAWYQQKPGKAPKLLIYSASFLYSGVPSRFSGSGSGTDFTLTISSLQPEDFATTYYCQQSYTGTVTFGQGTKVEIKRTVAAPDIQMTQSPSSLSASVGDRVTITCRASQDVSTAVAWYQQKPGKAPKLLIYSASFLYSGVPSRFSGSGSGTDFTLTISSLQPEDFATYYCQQSYTTPPTFGQGTKVEIKR
notes: HC linker short, LC linker short; also called DVD465H; DVD465L
B8 yielded a 50% effective concentration (EC50) of 396 nM.

B9: DVD483 (bispecific antibody, IgG1)
VH: B8 VH
VL: B4 VL
notes: HC linker short, LC linker long; also called DVD483H; DVD483L
As to B9, it took 46.1 nM to reach a half-maximal effect (EC50).

B10: DVD477 (bispecific antibody, IgG1)
VH: B4 VH
VL: B8 VL
notes: HC linker long, LC linker short; also called DVD477H; DVD477L
B10 had a concentration for a half-maximal effect (EC50) of 41.7 nM. This EC50 and that of the molecule before are within 1.5-fold of each other.

B11: DVD485 (bispecific antibody, IgG1)
VH: EVQLVESGGGLVQPGGSLRLSCAASGFTFTDNWISWVRQAPGKGLEWVGYISPNSGFTYYADSVKGRFTISADTSKNTAYLQMNSLRAEDTAVYYCARDNFGGYFDYWGQGTLVTVSSASTKGPEVQLVESGGGLVQPGGSLRLSCAASGFTINASWIHWVRQAPGKGLEWVGAIYPYSGYTNYADSVKGRFTISADTSKNTAYLQMNSLRAEDTAVYYCARWGHSTSPWAMDYWGQGTLVTVSS
VL: DIQMTQSPSSLSASVGDRVTITCRASQDVSTAVAWYQQKPGKAPKLLIYSASFLYSGVPSRFSGSGSGTDFTLTISSLQPEDFATTYYCQQSYTGTVTFGQGTKVEIKRTVAAPSVFIFPPDIQMTQSPSSLSASVGDRVTITCRASQVIRRSLAWYQQKPGKAPKLLIYAASNLASGVPSRFSGSGSGTDFTLTISSLQPEDFATYYCQQSNTSPLTFGQGTKVEIKR
notes: DVD-Ig, outer AB015 / inner AB071; HC linker short, LC linker long; also called DVD485H; DVD485L
Take B11: the EC50 came to 121 nM.

B12: DVD486 (bispecific antibody, IgG1)
VH: EVQLVESGGGLVQPGGSLRLSCAASGFTINASWIHWVRQAPGKGLEWVGAIYPYSGYTNYADSVKGRFTISADTSKNTAYLQMNSLRAEDTAVYYCARWGHSTSPWAMDYWGQGTLVTVSSASTKGPEVQLVESGGGLVQPGGSLRLSCAASGFTFTDNWISWVRQAPGKGLEWVGYISPNSGFTYYADSVKGRFTISADTSKNTAYLQMNSLRAEDTAVYYCARDNFGGYFDYWGQGTLVTVSS
VL: DIQMTQSPSSLSASVGDRVTITCRASQVIRRSLAWYQQKPGKAPKLLIYAASNLASGVPSRFSGSGSGTDFTLTISSLQPEDFATYYCQQSNTSPLTFGQGTKVEIKRTVAAPSVFIFPPDIQMTQSPSSLSASVGDRVTITCRASQDVSTAVAWYQQKPGKAPKLLIYSASFLYSGVPSRFSGSGSGTDFTLTISSLQPEDFATTYYCQQSYTGTVTFGQGTKVEIKR
notes: DVD-Ig, outer AB071 / inner AB015; HC linker short, LC linker long; also called DVD486H; DVD486L
Turning to B12, the concentration for a half-maximal effect (EC50) worked out at 28 nM.

(Values after patent publication US20100260668A1 (published 2010).)
